# Data from patent US12338199B2, “Bis-octahydrophenanthrene carboxamides and protein conjugates thereof” (REGENERON PHARMACEUTICALS, INC., priority 2017, dated 2025).
# Where two headings read alike, the source gives them in different places.
# Key:
# [1] = biological target: T1, His9-hMSR1 (human MSR1 extracellular domain) (Homo sapiens, UniProt P21757); assay: Biacore surface plasmon resonance binding kinetics; conditions: 25° C.; for kd / kd (s^−1): * = no dissociation observed, kd fixed at 1.00E−05; for Kd: calculated from the kinetic rates, read-out: KD (Molar); for ka: His9-hMSR1 binding to captured antibody
# T1 construct: human MSR1 extracellular domain expressed with a N-terminal nonahistidine tag; purchased R&D Systems 2708-MS
# T1 sequence (P21757 77-451 limits assumed): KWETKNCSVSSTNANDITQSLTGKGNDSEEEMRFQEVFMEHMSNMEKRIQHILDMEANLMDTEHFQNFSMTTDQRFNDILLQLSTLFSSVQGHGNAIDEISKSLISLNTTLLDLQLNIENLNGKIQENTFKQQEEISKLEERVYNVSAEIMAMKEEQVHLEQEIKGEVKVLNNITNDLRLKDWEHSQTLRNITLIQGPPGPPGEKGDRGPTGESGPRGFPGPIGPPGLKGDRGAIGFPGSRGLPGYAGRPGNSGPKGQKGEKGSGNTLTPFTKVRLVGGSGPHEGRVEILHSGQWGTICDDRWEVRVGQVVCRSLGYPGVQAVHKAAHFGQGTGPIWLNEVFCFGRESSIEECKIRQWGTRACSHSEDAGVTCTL
# Procedure: The MSR1 antibodies disclosed herein were conjugated to various liver X receptor (LXR) payloads. This example describes how equilibrium dissociation constant (KD) values for human MSR1 reagents binding to human anti-MSR1 antibody-drug conjugates and their corresponding unconjugated parental antibodies were determined using a real-time surface plasmon resonance-based Biacore T200 biosensor.
# All binding studies were performed in 10 mM HEPES, 300 mM NaCl, 3 mM EDTA, and 0.05% v/v Surfactant Tween-20, pH 7.4 (HBS-ET) running buffer at 25° C. The Biacore CM4 sensor chip surface was first derivatized by amine coupling with the goat anti-human Fcγ specific polyclonal antibody (Jackson ImmunoResearch Laboratories, Cat # BR-1008-39) to capture anti-MSR1 monoclonal antibodies. Binding studies were performed on human MSR1 extracellular domain expressed with a N-terminal nonahistidine tag (His9-hMSR1; R&D Systems, Cat #2708-MS).
# The association rate (ka) and dissociation rate (kd) were determined by fitting the real-time binding sensorgrams to a 1:1 binding model with mass transport limitation using Scrubber 2.0c curve-fitting software. Binding dissociation equilibrium constant (KD) and dissociative half-life (t½) were calculated from the kinetic rates as: […]
# THP1/LXR-Luc cells = assay: LXR-luciferase reporter bioassay in PMA-differentiated THP1/LXR-Luc cells; format: cell-based, human; conditions: for S/N (signal to noise, ratio of RLU of standard one over RLU of standard eight) / EC50: PMA-differentiated THP1/LXR-Luc cells, 48 hours; for S/N (signal to noise, ratio of RLU of standard one over RLU of standard eight): luciferase activity; for EC50: luciferase activity (One-Glo), 10-point dose response 100 nM to 0.01 nM
# Description: To test the efficacy of anti-MSR1 antibody-LXR conjugates in vitro, a cell-based LXR responsive luciferase reporter assay was developed. To generate the assay cell line, a LXR regulated luciferase reporter gene [Cignal Lenti LXR Reporter (luc) kit (Qiagen, Cat # CLS-001L)] was transduced into THP1 cells, and cells were selected for two weeks in puromycin. The lentivirus expresses the firefly luciferase gene under the control of a minimal CMV promoter and tandem repeats of the LXR transcriptional response element. The resulting cell line is referred to as THP1/LXR-Luc cells.
# THP1/LXR-Luc cells were seeded onto 96 well plates at 40,000 cells/well in media containing RPMI supplemented with 10% FBS and pencillin/streptomycin and subsequently differentiated with 200 nM Phorbol Myristate Acetate (PMA) for 3 days. After the 3-day differentiation period, three-fold serial dilutions of antibody drug conjugates, unconjugated antibodies, or free payloads in fresh media were added to the cells at final concentration ranging from 100 nM to 0.01 nM. Media alone served as a blank control. Forty-eight hours later, luciferase activity was determined after the addition of One-Glo™ reagent (Promega, Cat # E6130) to each well. Relative light units (RLUs) were measured on a Victor luminometer (PerkinElmer) and EC50 values were determined using a four-parameter logistic equation over a 10-point dose response curve (GraphPad Prism). The signal to noise (S/N) was determined by calculating the ratio of RLU of standard one over RLU of standard eight for each of the unconjugated anti-MSR1 antibodies or free payloads. “LP #” represents a linker-payload for which the corresponding structures are provided elsewhere herein, and “P #” represents a payload for which the corresponding structures are provided elsewhere herein.
# THP-1 cells = assay: BODIPY-cholesterol efflux in THP-1 macrophages; format: cell-based, human
# Procedure: The ability of anti-MSR1 antibody-LXR conjugates to activate cholesterol efflux in a human macrophage cell line (THP-1; ATCC Catalog # TIB-202), was assessed using a fluorescent cholesterol analog.
# Cells were differentiated into macrophages by addition of 100 nM Phorbol-12 myristate 13-acetate (Sigma, Catalog #P 8139) to the media and subjected to further incubation for 96 hours.
# Percentage of BODIPY-cholesterol efflux was calculated using the following formula: [fluorescence in acceptor media/(fluorescence in acceptor media+fluorescence in cell lysate)]×100. Table 15 provides activated cholesterol efflux for the tested articles, and FIG. 15 illustrates the data in graph form.
Molecule,kd [1] [s⁻¹],Kd [1] [nM],ka [1] [M⁻¹ s⁻¹],further results
"H1H27739P-N297Q (antibody, V domains shown) VH: EVQLVESGGGLVQPGGSLRLSCTASGFTFSSYAMSWVRQAPGKGLEWVSAISGTGSSTYFTDSVKGRFAISRDNSKNTLYLQMNSLRAEDTAVYYCAKDGEWLSTVTLFDYWGQGTLVTVSS VL: EIVMTQSPATLSVSPGERATLSCRASQSVSSNLAWYQQKPGQAPRLLIYGASTRATGIPARFSGSGSGTDFTLTISSLQSEDFALYYCQQYFIWPPHPTFGPGTKVDIKR",0.000555,4.68,119000,–
"H1H21234N (antibody, V domains shown) VH: QVQLQESGPGLVKPSETLSLTCTVTGGSISRNYWSWIRQPPGKGLEWIGYIYYSGSIDYNPSLKSRVTISVDTSKNQFSLKLSSMTAADTAVYYCARDRWNWKYGMDVWGQGTTVIVSS VL: EIVLTQSPGTLSLSPGERATLSCRASQTVRNNYLAWYHQKPGQAPRLLIYGASSRATGIPDRFSGSGSGTDFTLTISRLEPEDFTVYYCHQYGNSPWTFGQGTKMEIKR",–,–,–,"stimulation of the THP/Luc cells (THP1/LXR-Luc cells; 48-hour time point, in words): did not have any impact"
H1H21234N-N297Q-LP 13 (conjugate) VH: QVQLQESGPGLVKPSETLSLTCTVTGGSISRNYWSWIRQPPGKGLEWIGYIYYSGSIDYNPSLKSRVTISVDTSKNQFSLKLSSMTAADTAVYYCARDRWNWKYGMDVWGQGTTVIVSS VL: EIVLTQSPGTLSLSPGERATLSCRASQTVRNNYLAWYHQKPGQAPRLLIYGASSRATGIPDRFSGSGSGTDFTLTISRLEPEDFTVYYCHQYGNSPWTFGQGTKMEIKR,–,–,–,"S/N (signal to noise, ratio of RLU of standard one over RLU of standard eight) (THP1/LXR-Luc cells): 9.6; EC50 (THP1/LXR-Luc cells; read-out: EC50): 0.98 nM"
"H1H21234N-N297Q (antibody, V domains shown) VH: QVQLQESGPGLVKPSETLSLTCTVTGGSISRNYWSWIRQPPGKGLEWIGYIYYSGSIDYNPSLKSRVTISVDTSKNQFSLKLSSMTAADTAVYYCARDRWNWKYGMDVWGQGTTVIVSS VL: EIVLTQSPGTLSLSPGERATLSCRASQTVRNNYLAWYHQKPGQAPRLLIYGASSRATGIPDRFSGSGSGTDFTLTISRLEPEDFTVYYCHQYGNSPWTFGQGTKMEIKR",–,0.0454,220000,"kd (s^−1) [1]: ≤ 1.00E−05* s^−1; S/N (signal to noise, ratio of RLU of standard one over RLU of standard eight) (THP1/LXR-Luc cells): No activation; EC50 (THP1/LXR-Luc cells): No activation; Maximum efflux (%) (THP-1 cells; 24-hour treatment, BODIPY-cholesterol efflux): 18.7%; cholesterol efflux (THP-1 cells; after 24 hours, in words): did not demonstrated any measurable cholesterol efflux"
"H1H27754P-N297Q (antibody, V domains shown) VH: EVQLVESGGGLVQPGGSLRLSCAASGFTFRTYAMTWVRQAPGKGLDWVSAITGDGGNTYYADSVKGRFTISRDNSKNTLYLQMNSLRAEDTAIYYCAKDQRFSFALYYFDYWGQGTLVTVSS VL: DIQMTQSPSSVSASVGDRVTITCRASQGISSWLAWYQQKPGNAPKLLIYAAFSLQSGVPSRFSGSGSGTDFTLTISSLQPEDFATYYCQQANNFPWTFGQGTKVEIKR",–,0.0499,200000,kd (s^−1) [1]: ≤ 1.00E−05* s^−1
"H1H27731P-N297Q (antibody, V domains shown) VH: QLQLQESGPGLVKPSETLSLTCTVSGGSISRISYYWGWIRQPPGKGLEWIGSIYDSGSTYYNPSLKSRVTISIDTSKNQFSLKLSSVTAADTAVYYCVRYSSSSAFAFDYWGQGTLVTVSS VL: DIQMTQSPSSVSASVGDRVTITCRASQGISSWLAWYQQKPGKAPKLLIYAASSLQSGVPSRFSGSGSGTDFTLTISSLQPEDFATYYCQQANSFPFTFGPGTKVDIKR",1e-05,0.0855,117000,–
"H1H27729P-N297Q (antibody, V domains shown) VH: QVQLVESGGGLVKPGGSLRLSCAASGFIFSDYYMSWIRQAPGKGLEWVSYISSSGTTIYGDSVKGRFTMSRDNAKNSLYLQMNSLRAEDTAVYYCARNYALFDYWGQGTLVTVSS VL: DIQMTQSPSSLSASVGDRVTITCQASQDISKYLNWYQQKPGKAPKLLIYYTSNLETGVPSRFSGSGSGTDFTFTISSLQPEDIATYYCHQSDYLPFTFGPGTKVDIKR",0.000906,8.67,105000,–
"H1H27734P-N297Q (antibody, V domains shown) VH: EVQLVESRGGLVQPGGSLRLSCAASGFTFSSYAMSWVRQAPGKGLEWVSAISGSGGSTFYADSVKGRFTISRDNSKNTVYLQMNSLRAEDTAVYYCAKALVLRFLEWLGDYWGQGTLVTVSS VL: DIQMTQSPSTLSASVGDRVTITCRASQSISSWLAWFQQKPGKAPKLLIYKASSLESGVPSRFSGSGSGTEFTLTISSLQPDDFATYYCQQYKSYWTFGQGTKVEIKR",0.000596,7.72,77200,–
